Experimental data from patent US10900903B2, “Protein structure analysis based on red-edge excitation shift (REES) spectroscopy” (UNIVERSITY OF BATH, priority 2016, dated 2021).
“And” between values parts separate entries of the source, which are not always exact repeats. Equal entries are not always repeated.

Legend:
[1] = REES of NEMO W6 Trp emission: native, denatured, crowded; format: physicochemical; settings: for R0: y-intercept of Eq 2 fit
Experimental: Typically the magnitude of the steady-state REES phenomenon is reported as the simple difference in CSM or ΔλEm^max. From FIG. 1, it is observed that a significant red shift in the emission spectra, with an increase in CSM of 17.7 nm and an increase in ΔλEm^max of 15 nm from λex 292-310 nm. Essentially the data are treated by the linear function: CSM=Rλex+CSM0 Eq 1.
Where R is the REES magnitude expressed as the change in CSM per nm of the excitation wavelength, λex.
The REES data in FIG. 2 can be best represented by a Gaussian probability distribution of the form:
Where A is the area, w is the full width at half-maximal (fwhm), m is the mid-point and R0 is the y-intercept and m=λREES^max, where λREES^max is the excitation wavelength that gives the largest change in the emission peak wavelength. The data in FIG. 2 are fit to Eq 2 and illustrate the low energy excitation at the red edge of the protein absorption spectrum. The fit of Eq 2 to the experimental data is excellent and captures the expected relationship described above.
In this case, the solvent relaxation will be very rapid and no REES effect observed, effectively because there is one discrete solvation state (fully solvated). NEMO is incubated in 6M guanidine to denature the protein and the corresponding change in the center of spectral mass (CSM) versus λex is shown in FIG. 3. The use of CSM is favoured instead of the magnitude of ΔλEm^max as this metric gives a more robust REES signal and the magnitude of may be highly error prone. However the results using ΔλEm^max are essentially the same. A decrease and red-shift in Trp emission is typically grossly correlated with denaturation of proteins. […] Note that this is not the REES effect but reflective of the solvent exposure of NEMO W6 on denaturation. […] Fitting to Eq 2 also gives a large decrease in the REES effect, A=0.37±0.4. The relative change in the REES effect is similar using either approach and this indicates strongly that a fitting approach using Eq 2 is robust.
Macromolecular crowding is a key feature of the intracellular milieu arising from the very high concentrations of other species in the cytosol. Crowding reduces the available solvent for other molecules in solution through the excluded volume effect, which effectively increase the concentration of, for example, protein and restricts the accessible conformational states through hard-core repulsions between the crowding agent and the protein. Macromolecular crowding can alter protein conformation, typically inducing folding and stabilization. Crowding therefore potentially provides a means to explore the contrasting physical effect of denaturation on the REES effect, where the protein is more folded/stabilized. A protein has been used as the crowding agent, Sbi (reported above), instead of a synthetic crowding agent since protein is much more consistent with the intracellular environment. […] Incubating NEMO with a high concentration of Sbi (20 mg/ml) gives a dramatic change to the both the absolute Trp emission and also the REES effect as shown in FIG. 3. […] Intriguingly, the REES effect is much larger in the crowded environment giving a relative increase in A of 2.24±0.51. […] This is consistent with the putative molecular model of NEMO activity that is based on allosterically regulated NEMO conformational change. Below, the potential mechanistic role of an increased number of available conformational states with respect to ligand interactions is described.
Full length human NEMO was expressed and purified essentially as described previously. Purified protein was dialysed extensively into a buffer comprising 50 mM Tris-Cl pH 8.0, 50 mM NaCl and 5 mM DTT. All measurements were made in this buffer unless otherwise stated. IKK-β and IκBα peptides were commercially synthesised by Genscript, having a purity of >98% and are of the sequence […] and […], respectively. […]

[2] = High-pressure REES measurements; format: physicochemical
Excerpt: The CSM value is rather larger than reported for the denaturation study above (FIGS. 3A and 3B) and this is due to a different spectral window used to calculate the CSM for the pressure studies. This was necessary due to the optical setup of the pressure cell. […] Fitting the REES data to Eq 4 gives the pressure dependence of A, shown in FIG. 4D as the change in the fraction of A across the pressure range. […] The pressure dependence data can be adequately fit to a simple, phenomenological model that implies a single transition between two states with changing hydrostatic pressure as used previously:
Where Rp=83.13 cm3 mol^−1 bar K^−1 when the pressure, p, is measured in bar, K0 is the equilibrium constant for the change in the relative population of the ith conformational state represented by the magnitude of A from Eq 4, extrapolated to 0 bar and ΔVA is the apparent difference in the volume associated with this equilibrium transition.
The difference in sign is simply attributable to relative change in direction of the specific to signal. What is important is that the magnitude of ΔV is much larger for the REES effect compared to W6 emission. Indeed, this magnitude of pressure dependence is more consistent with global metrics of NEMO conformational change previously measured using the pressure dependence of 8-anilino naphthalene sulfonate (ANS) emission. The REES signal may therefore be reflective of the broader equilibrium of NEMO conformational states at sites distal to W6. […] The key finding from the pressure data in the present context is that the REES effect itself is pressure-dependent with the magnitude of A increasing with pressure.
An ISS high-pressure cell (ISS, Champaign, UL, USA), fitted with a custom fiber optic mounting to the fluorimeter and connected to a circulating water bath for temperature regulation was used to record all high-pressure measurements.
Where fi is the measured fluorescence intensity and λem is the emission wavelength. The importance of using a consistent wavelength range when reporting CSM data is stressed, as the magnitude will be dependent on the wavelength range chosen.

[3] = pressure dependence of emission, ref [23]; cited from earlier work
[4] = previously found; cited from earlier work
[5] = QUBES values of native mAbs; format: physicochemical; settings: native mAb
Excerpt: First, the combined excitation and emission spectrum is monitored for each mAb giving a high information content fluorescence data set (FIG. 13A). […] A simpler exponential function is fitted, CSM=CSM0+Ae^RΔλ^Ex Eq 1.
Where CSM0 is the CSM value independent of the excitation wavelength, λEx, determined by the amplitude, A, of an exponential with a curvature determined by R. Fitting with this function instead of a Gaussian or other probability distribution dramatically improves the speed of data processing due to the lower dimensionality of the model but still retains the key aspects of the previous model, namely quantification of the magnitude of the fluorescence edge-shift. The plot of the resulting parameters yields a single three-dimensional data point (FIG. 13B, inset; the QUBES value), which is a direct quantification of the extremely complex spectral fingerprint shown in FIG. 13A.
All fluorescence measurements were performed using a Perkin Elmer LS50B Luminescence Spectrometer (Perkin Elmer, Waltham, Mass., USA) connected to a circulating water bath for temperature regulation (±1° C.). […] Tryptophan emission was monitored from 325 to 500 nm. […] The centre of spectral mass (CSM) was calculated using the following equation: […]
Where fi is the measured fluorescence intensity and Δem is the emission wavelength. […]

## NEMOnative: Full length human NF-κB essential modulator; W6 is its single intrinsic Trp residue
[1]; absolute value
  R (fit to Eq 1), change in CSM per nm of λex: 0.96
[1]; relative to NEMO alone, native, denatured (6M guanidine), crowded (Sbi 20 mg/ml)
  A (REES magnitude, fit to Eq 2): 1 ± 0.1
[1]; relative to NEMO alone, native, denatured, crowded
  R (fit to Eq 1), relative: 1 ± 0.13
[1]; native, denatured, crowded
  R0: 363.2 ± 0.19 nm
[1]; native, denatured, crowded, listed as NEMO
  R0: 363.2±0.19 nm
[1]; native, denatured, crowded, listed as native NEMO
  R0: 363.2±0.19 nm
[1]; λex 292-310 nm
  increase in CSM (red shift): 17.7 nm
  increase in ΔλEm^max: 15 nm
[2]; 10° C., 1 bar, λex=295 nm
  ΔλEm^max: 348 nm
[2]; λex=292 nm
  increase in W6 CSM with increasing pressure: 3.0 nm
[2]; λex=310 nm
  increase in CSM from 1 to 2000 bar: 8.9 nm
[3]
  ΔV for W6 (Trp) emission: 0.81 cm3 mol^−1 and ~1.6±0.4 cm3 mol^−1
[4]
  random coil content: ~40%
  α-helical content: ~50%

## Nivolumab: human therapeutic mAb
[5]
  QUBES value (A, R), predicted rigidity/flexibility: high A and small R value

## Pertuzumab: humanised therapeutic mAb
[5]
  QUBES value (A, R), predicted rigidity/flexibility: small A and high R value
